From paper PMC5653232 (Cell reports, 2017)

Assays:
[1] = tested on: CHD3 PHD1/2; test: Tryptophan fluorescence, linked CHD3 PHD1/2 with histone H3 peptides; assay type: binding; conditions: either peptide; apparent Kds measured by tryptophan fluorescence
[2] = molecular target: H3K9Cme3-NCP; test: Fluorescence polarization, CHD3 PHD1/2 with H3K9Cme3-NCP; assay type: binding, human; conditions: read-out: apparent dissociation constant Kd (H3K9Cme3-NCP), 5 nM nucleosomes, 15 mM Tris pH 7.5, 75 mM NaCl, 0.00625% Tween20, 3 mM DTT, three separate experiments
[3] = tested on: Cy3-Cy5-H3K9Cme3-NCP; test: FRET nucleosome unwrapping, Cy3-Cy5-H3K9Cme3-NCP; assay type: biochemical, human

B1: CHD3 PHD1/2: natively linked tandem PHD fingers of CHD3, construct PHD1/2 (373–508) (protein)
chain: GYETDHQDYCEVCQQGGEIILCDTCPRAYHLVCLDPELDRAPEGKWSCPHCEKEGVQWEAKEEEEEYEEEGEEEGEKEEEDDHMEYCRVCKDGGELLCCDACISSYHIHCLNPPLPDIPNGEWLCPRCTCPVLKGR
modifications: left off: GST, end not stated, cleaved
In the case of B1, the “fold stronger binding of linked PHD1/2 than unlinked individual domains” value [1] is reported as ~10^2 fold, the Kd [2] is reported as 1400 nM and the “change in FRET efficiency by CHD3 PHD1/2 without LA” value ([3]; CHD3 PHD1/2 up to 300 µM) is reported as “no measurable change in the FRET efficiency”. For the same molecule, the “change in FRET efficiency by CHD3 PHD1/2 with LA” value ([3]; LA at a concentration equivalent to the LA S1/2) was “reduced substantially”.
